The values below come from patent US20200055941A1 (MILTENYI BIOTEC, published 2020).

Test [1] deals with T1, Recombinant Human Fc gamma RIIb/CD32b (human, UniProt P31994 46-217).
T1 construct: also called FcγRIIb; CD32b/c
T1 sequence (looked up): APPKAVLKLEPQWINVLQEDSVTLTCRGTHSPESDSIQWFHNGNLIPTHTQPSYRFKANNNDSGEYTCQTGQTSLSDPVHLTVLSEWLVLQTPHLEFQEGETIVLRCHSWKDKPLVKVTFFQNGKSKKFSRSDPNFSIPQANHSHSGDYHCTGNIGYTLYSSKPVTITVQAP
As to the kind of experiment: ELISA, plates coated with recombinant CD32b/c, anti-human kappa-HRP. Here is the method:
To examine more precisely the CD32b/c binding of MB101, the wt IgG₄ and the two single mutation variants, linear dilutions of the mAbs were incubated with ELISA plates previously coated with recombinant CD32b/c. FcR-bound anti-BDCA2 Ab were probed with anti-human kappa-HRP and TMB-substrate.
(§1) ELISA plates were coated with Fc gamma receptors I, IIa, IIb, IIIa and IIIb with 5 μg/mL each in coating buffer overnight at 4° C. Coated plates were washed 3-fold with 1×PBS 0.05% Tween 20 and blocked with 5% BSA in 1×PBS. Antibodies were applied to ELISA plates with 50 μL/well at serial 2-fold dilution of antibody solution and incubated at room temperature for 1 h. As blank controls, respective antibody concentrations were also applied to wells lacking coated Fc gamma receptors, in order to subtract unspecific binding from resulting signals. After washing (see above), the detection antibody anti-human kappa-HRP (FE 110316.07) 1:4000 in 1×PBS was applied with 50 μL/well and incubated again at RT for 1 h. After additional washing (see above), for assay development 50 μL/well TMB (CH111027.37) were applied and stopped after approx. 5 minutes with 50 μL/well 10% H₂SO₄. The developed plate was then analyzed via ELISA reader at 450 nm wavelength.

Test [2] addresses T2, Recombinant Human Fc gamma RIIIb/CD16b (human, UniProt O75015 17-200).
T2 construct: also called Fcγ RIIIb/c; CD16b/c
Description: ELISA, plate-bound recombinant receptor, anti-human kappa-HRP. Here is the method:
as §1
For orientation: ELISA stands for enzyme-linked immunosorbent assay.

Test [3] has as its target T1, Recombinant Human Fc gamma RIIb/CD32b. The description is as above. The protocol:
as §1

T2 sequence (O75015 17-200 limits assumed): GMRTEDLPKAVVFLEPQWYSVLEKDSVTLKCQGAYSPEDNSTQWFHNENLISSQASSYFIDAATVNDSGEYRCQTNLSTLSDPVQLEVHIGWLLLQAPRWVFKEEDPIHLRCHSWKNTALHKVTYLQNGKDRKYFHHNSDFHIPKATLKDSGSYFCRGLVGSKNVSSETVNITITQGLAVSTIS

B1: aCD303-hIgG4-WT (antibody)
heavy: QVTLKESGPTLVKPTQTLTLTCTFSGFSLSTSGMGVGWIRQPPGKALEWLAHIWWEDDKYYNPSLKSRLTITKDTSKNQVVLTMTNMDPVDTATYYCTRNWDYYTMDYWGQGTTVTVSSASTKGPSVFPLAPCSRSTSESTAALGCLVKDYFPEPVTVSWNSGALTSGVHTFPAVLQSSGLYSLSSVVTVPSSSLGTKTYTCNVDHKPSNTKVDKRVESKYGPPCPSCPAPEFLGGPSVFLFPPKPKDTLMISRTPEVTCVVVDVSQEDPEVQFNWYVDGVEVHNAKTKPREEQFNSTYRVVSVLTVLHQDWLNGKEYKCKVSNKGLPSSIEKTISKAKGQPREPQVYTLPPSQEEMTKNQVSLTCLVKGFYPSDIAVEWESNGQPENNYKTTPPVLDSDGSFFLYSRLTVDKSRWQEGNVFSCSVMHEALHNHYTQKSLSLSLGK
light: DIQMTQSPSSVSASVGDRVTITCRASQEISGYLSWYQQKPGKAIKRLIYAASTLDSGVPSRFSGSRSGTDFTLTISSLQSEDFATYYCLQYASYPPTFGGGTKLEIKGTVAAPSVFIFPPSDEQLKSGTASVVCLLNNFYPREAKVQWKVDNALQSGNSQESVTEQDSKDSTYSLSSTLTLSKADYEKHKVYACEVTHQGLSSPVTKSFNRGEC
notes: MB101 (anti-CD303) expressed as a wild type IgG4; also called wt IgG4; wild type IgG4 antibody (aCD303-hIgG4)
B1: the binding result in test [1] is on record as “binds”.

B2: MB101 (aCD303-hIgG4-S241P/R409K) (antibody)
heavy: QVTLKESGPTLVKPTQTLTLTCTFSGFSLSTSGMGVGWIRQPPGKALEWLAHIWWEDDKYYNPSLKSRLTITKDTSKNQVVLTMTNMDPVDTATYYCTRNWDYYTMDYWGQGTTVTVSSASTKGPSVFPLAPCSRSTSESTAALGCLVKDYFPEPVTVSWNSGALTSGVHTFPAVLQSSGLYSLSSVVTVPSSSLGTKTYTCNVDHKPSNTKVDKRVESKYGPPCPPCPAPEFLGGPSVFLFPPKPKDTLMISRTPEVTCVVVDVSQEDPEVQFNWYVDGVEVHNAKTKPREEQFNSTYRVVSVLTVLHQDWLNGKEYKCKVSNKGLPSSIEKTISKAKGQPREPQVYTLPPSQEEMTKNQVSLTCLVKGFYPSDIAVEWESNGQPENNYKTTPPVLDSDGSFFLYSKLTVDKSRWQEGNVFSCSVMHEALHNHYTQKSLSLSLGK
light: DIQMTQSPSSVSASVGDRVTITCRASQEISGYLSWYQQKPGKAIKRLIYAASTLDSGVPSRFSGSRSGTDFTLTISSLQSEDFATYYCLQYASYPPTFGGGTKLEIKGTVAAPSVFIFPPSDEQLKSGTASVVCLLNNFYPREAKVQWKVDNALQSGNSQESVTEQDSKDSTYSLSSTLTLSKADYEKHKVYACEVTHQGLSSPVTKSFNRGEC
notes: Humanized IgG4 against BDCA-2 (CD303), made in CHO DG44 cells; also called MB101.10; anti-CD303 IgG4 S241P/R409K
In the case of B2, the binding result in test [2] is recorded as “no binding”; in test [3], “binds”.

B3: Pool 6 (aCD303-hIgG4-R409K) (antibody)
heavy: QVTLKESGPTLVKPTQTLTLTCTFSGFSLSTSGMGVGWIRQPPGKALEWLAHIWWEDDKYYNPSLKSRLTITKDTSKNQVVLTMTNMDPVDTATYYCTRNWDYYTMDYWGQGTTVTVSSASTKGPSVFPLAPCSRSTSESTAALGCLVKDYFPEPVTVSWNSGALTSGVHTFPAVLQSSGLYSLSSVVTVPSSSLGTKTYTCNVDHKPSNTKVDKRVESKYGPPCPSCPAPEFLGGPSVFLFPPKPKDTLMISRTPEVTCVVVDVSQEDPEVQFNWYVDGVEVHNAKTKPREEQFNSTYRVVSVLTVLHQDWLNGKEYKCKVSNKGLPSSIEKTISKAKGQPREPQVYTLPPSQEEMTKNQVSLTCLVKGFYPSDIAVEWESNGQPENNYKTTPPVLDSDGSFFLYSKLTVDKSRWQEGNVFSCSVMHEALHNHYTQKSLSLSLGK
light: DIQMTQSPSSVSASVGDRVTITCRASQEISGYLSWYQQKPGKAIKRLIYAASTLDSGVPSRFSGSRSGTDFTLTISSLQSEDFATYYCLQYASYPPTFGGGTKLEIKGTVAAPSVFIFPPSDEQLKSGTASVVCLLNNFYPREAKVQWKVDNALQSGNSQESVTEQDSKDSTYSLSSTLTLSKADYEKHKVYACEVTHQGLSSPVTKSFNRGEC
notes: Single mutation variant of MB101; also called anti-CD303 IgG4 R409K; IgG4 variant R409K
With B3, the binding result in test [1] is given as “binds”.
